Test results as given in article PMC4156074, “Inhibition of Plasma Kallikrein by a Highly Specific Active Site Blocking Antibody” (The Journal of Biological Chemistry, 2014).

Key:
Details in all cases: both partners purified
[1] = target: T1, Full-length human plasma kallikrein, activated form (human, UniProt P03952); experiment: enzyme inhibition (steady state, tight-binding fit); purified Fab fragments on full-length pKal, potency studies like those of Fig. 2A; apparent
T1 construct: also called pKal; active pKal; source: bought: Enzyme Research Laboratories

[2] = target: T2, pKal complexed with 2-chain HMWK (Homo sapiens, UniProt P03952;P01042); experiment: enzyme inhibition (steady state, tight-binding fit); DX-2930 IgG (up to 10 nM, 1.5-fold dilutions) incubated 1 h at 30 °C with 1 nM pKal, free or preincubated with 600 nM 2-chain HMWK, in 20 mM Tris-HCl pH 7.5, 150 mM NaCl, 1 mM EDTA, 0.1% PEG-8000, 0.1% Triton X-100; substrate H-Pro-Phe-Arg-AMC at 10, 50 or 100 uM; Ki from Ki app by Equation 2, averaged
T2 construct: heavy chain of 2-chain HMWK, as in m6; light chain of 2-chain HMWK, as in m6; also called pKal·HMWK complex; source: bought proteins (Enzyme Research Laboratories); pKal preincubated with 600 nM (or 4.7 uM) HMWK; copies: + + +

[3] = target: T3, purified pKal from mouse (Mus musculus, UniProt P26262); experiment: enzyme inhibition (steady state, tight-binding fit); DX-2930 on purified pKal of mouse, rat, rabbit and cynomolgus monkey; apparent; data not shown
T3 construct: also called mouse pKal

[4] = target: T4, pKal from rabbit plasma (Oryctolagus cuniculus, UniProt G1T127); experiment: as above
T4 construct: also called rabbit pKal; source: purified from rabbit plasma by Athens Research and Technology

[5] = target: T5, pKal from rat plasma (Rattus norvegicus, UniProt P14272); experiment: as above
T5 construct: also called rat pKal; source: purified from rat plasma by Athens Research and Technology

[6] = target: T6, Full-length human plasma prekallikrein (Homo sapiens, UniProt P03952); experiment: SPR; BIAcore 3000, 25 °C, HBS-P (10 mM HEPES pH 7.4, 150 mM NaCl, 0.005% P20); DX-2930 captured on goat anti-human Fc IgG on CM5; 500 nM prekallikrein, pKal or pKal-AEBSF injected 5 min at 20 ul/min, 5 min dissociation
T6 construct: human plasma prekallikrein, single-chain zymogen; also called zymogen; source: bought: Enzyme Research Laboratories

[7] = target: T5, pKal from rat plasma; experiment: enzyme inhibition (steady state, tight-binding fit); purified Fab fragments on full-length pKal, potency studies like those of Fig. 2A; apparent
[8] = target: T7, Full-length human plasma kallikrein, activated form (human, UniProt P03952 20-390; P03952 391-638); experiment: SPR; BIAcore 3000, 25 °C, HBS-P; 2-chain HMWK amine-coupled on CM5 (~2000 RU); varying pKal flowed 5 min at 20 ul/min; equilibrium RU fit to Equation 3
T7 construct: also called pKal; active pKal; source: bought: Enzyme Research Laboratories
T7 sequence (P03952 20-390, chain 1 of 2): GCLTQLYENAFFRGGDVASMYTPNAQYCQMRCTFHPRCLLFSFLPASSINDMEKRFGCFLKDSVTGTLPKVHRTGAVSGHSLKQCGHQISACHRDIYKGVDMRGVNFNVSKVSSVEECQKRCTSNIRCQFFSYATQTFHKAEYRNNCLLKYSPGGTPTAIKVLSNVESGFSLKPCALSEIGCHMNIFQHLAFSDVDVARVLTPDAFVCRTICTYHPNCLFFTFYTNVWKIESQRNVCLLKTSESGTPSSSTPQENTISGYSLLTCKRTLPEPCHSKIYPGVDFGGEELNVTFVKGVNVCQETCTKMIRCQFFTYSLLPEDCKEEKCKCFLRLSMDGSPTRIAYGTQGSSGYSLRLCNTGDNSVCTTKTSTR
T7 sequence (P03952 391-638, chain 2 of 2): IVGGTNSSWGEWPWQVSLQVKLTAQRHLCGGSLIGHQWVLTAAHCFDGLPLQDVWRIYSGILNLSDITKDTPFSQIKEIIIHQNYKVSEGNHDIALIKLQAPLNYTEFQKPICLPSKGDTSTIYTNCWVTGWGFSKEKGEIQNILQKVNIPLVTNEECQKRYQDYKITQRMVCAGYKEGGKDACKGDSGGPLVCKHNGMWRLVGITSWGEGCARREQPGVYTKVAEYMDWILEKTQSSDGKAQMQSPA

T1 sequence (P03952 20-390, chain 1 of 2): as the sequence (P03952 20-390, chain 1 of 2) above
T1 sequence (P03952 391-638, chain 2 of 2): as the sequence (P03952 391-638, chain 2 of 2) above
T5 sequence (P14272 20-638): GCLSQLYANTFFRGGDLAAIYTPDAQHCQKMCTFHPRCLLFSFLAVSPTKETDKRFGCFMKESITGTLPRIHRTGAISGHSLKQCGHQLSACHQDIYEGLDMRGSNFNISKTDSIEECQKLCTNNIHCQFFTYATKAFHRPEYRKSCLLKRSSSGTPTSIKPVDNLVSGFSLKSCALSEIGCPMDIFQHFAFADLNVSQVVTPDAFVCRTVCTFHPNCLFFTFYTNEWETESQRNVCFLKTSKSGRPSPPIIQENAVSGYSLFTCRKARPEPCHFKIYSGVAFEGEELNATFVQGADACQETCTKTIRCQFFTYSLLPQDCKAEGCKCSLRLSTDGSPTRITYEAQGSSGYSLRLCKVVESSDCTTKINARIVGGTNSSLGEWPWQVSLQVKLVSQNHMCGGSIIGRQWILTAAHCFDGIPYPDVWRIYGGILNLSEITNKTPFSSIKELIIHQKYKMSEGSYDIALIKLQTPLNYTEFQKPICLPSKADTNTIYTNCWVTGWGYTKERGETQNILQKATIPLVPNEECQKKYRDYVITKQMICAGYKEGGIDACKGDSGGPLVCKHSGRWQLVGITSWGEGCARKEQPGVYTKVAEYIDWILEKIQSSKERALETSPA
T2 sequence (P03952 20-390, looked up, one chain of several): as the sequence (P03952 20-390, chain 1 of 2) above
T3 sequence (P26262 20-638): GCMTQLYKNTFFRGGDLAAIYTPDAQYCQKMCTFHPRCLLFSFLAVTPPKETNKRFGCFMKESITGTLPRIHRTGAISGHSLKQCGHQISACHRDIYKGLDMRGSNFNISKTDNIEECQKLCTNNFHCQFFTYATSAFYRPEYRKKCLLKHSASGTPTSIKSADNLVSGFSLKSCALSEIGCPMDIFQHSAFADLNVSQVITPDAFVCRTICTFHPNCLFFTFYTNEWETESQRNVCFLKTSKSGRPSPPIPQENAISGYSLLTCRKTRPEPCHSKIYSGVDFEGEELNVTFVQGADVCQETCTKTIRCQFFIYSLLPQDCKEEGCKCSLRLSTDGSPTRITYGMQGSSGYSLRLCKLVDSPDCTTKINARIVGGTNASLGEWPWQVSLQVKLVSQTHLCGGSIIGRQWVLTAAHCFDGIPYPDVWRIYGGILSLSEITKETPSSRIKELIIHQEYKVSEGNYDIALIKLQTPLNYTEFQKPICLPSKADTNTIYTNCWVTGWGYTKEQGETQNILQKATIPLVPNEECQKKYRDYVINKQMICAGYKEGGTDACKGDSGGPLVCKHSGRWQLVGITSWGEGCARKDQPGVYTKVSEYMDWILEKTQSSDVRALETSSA

B1: Fab M0201-H06 (Fab, V domains shown)
VH: EVQLLESGGGLVQPGGSLRLSCAASGFTFSHYIMMWVRQAPGKGLEWVSGIYSSGGITVYADSVKGRFTISRDNSKNTLYLQMNSLRAEDTAVYYCAYRRTGVPRRDAFDIWGQGTMVTVSS
VL: DIQMTQSPSTLSASVGDRVTITCRASQSISSWLAWYQQKPGKAPNLLIYKASTLESGVPSRFSGSGSGTEFTLTISSLQPDDFATYYCQQYNTYWTFGQGTKVEIK
notes: M0162-A04 with I103V alone in HV-CDR3; against the heavy chain of m2 it keeps T101 and A108; as the light chain of m2, germ line optimisation aside; source: E. coli, secreted, purified (protein A-Sepharose)
For B1, the Ki [1] was 560 pM.

B2: isolate M0199-A08 (Fab, V domains shown)
VH: EVQLLESGGGLVQPGGSLRLSCAASGFTFSHYIMMWVRQAPGKGLEWVSGIYSSGGITVYADSVKGRFTISRDNSKNTLYLQMNSLRAEDTAVYYCAYRRIGVPRRDEFDIWGQGTMVTVSS
VL: DIQMTQSPSTLSASVGDRVTITCRASQSISSWLAWYQQKPGKAPNLLIYKASTLESGVPSRFSGSGSGTEFTLTISSLQPDDFATYYCQQYNTYWTFGQGTKVEIK
notes: M0162-A04 with T101I, I103V and A108E in HV-CDR3; as the heavy chain of m2 before germ line optimisation; as the light chain of m2 before germ line optimisation; also called M0199-A08 variant; source: E. coli, secreted, purified (protein A-Sepharose)
B2 showed a Ki [1] of 50 pM.

B3: DX-2930, fully human IgG1 monoclonal antibody (antibody, V domains shown)
VH: EVQLLESGGGLVQPGGSLRLSCAASGFTFSHYIMMWVRQAPGKGLEWVSGIYSSGGITVYADSVKGRFTISRDNSKNTLYLQMNSLRAEDTAVYYCAYRRIGVPRRDEFDIWGQGTMVTVSS
VL: DIQMTQSPSTLSASVGDRVTITCRASQSISSWLAWYQQKPGKAPKLLIYKASTLESGVPSRFSGSGSGTEFTLTISSLQPDDFATYYCQQYNTYWTFGQGTKVEIK
notes: the Fab portion of the heavy chain is in the deposited structures (as the heavy chain of m2); the rest is the human IgG1 constant region (f-allotype); as the light chain of m2 in the deposited structures; IgG1 (f-allotype); Biotinylated for the ELISA on HUVEC; also called germ line-optimized M0199-A08; copies: 2 + 2
B3 gave a Ki [2] of 115 ± 3 pM, a Ki [3] of 170 pM and a Ki [4] of 14200 pM. The Ki [5] was 170 pM and the binding result [6] was “no binding (tested: 500 nM)”.

B4: Fab M0162-A04 (lead Fab, parent of the affinity maturation) (Fab, V domains shown)
VH: EVQLLESGGGLVQPGGSLRLSCAASGFTFSHYIMMWVRQAPGKGLEWVSGIYSSGGITVYADSVKGRFTISRDNSKNTLYLQMNSLRAEDTAVYYCAYRRTGIPRRDAFDIWGQGTMVTVSS
VL: DIQMTQSPSTLSASVGDRVTITCRASQSISSWLAWYQQKPGKAPNLLIYKASTLESGVPSRFSGSGSGTEFTLTISSLQPDDFATYYCQQYNTYWTFGQGTKVEIK
notes: as the heavy chain of m2 but with the parental HV-CDR3 residues T101, I103, A108; as the light chain of m2, germ line optimisation aside; source: E. coli, secreted, purified (protein A-Sepharose)
Work on B4 yielded a Ki [7] of ~5000 pM and a Ki [1] of ~5000 pM.

B5: 2-chain high molecular weight kininogen (treated with pKal to excise bradykinin) (natural protein, human)
chain 1: QESQSEEIDCNDKDLFKAVDAALKKYNSQNQSNNQFVLYRITEATKTVGSDTFYSFKYEIKEGDCPVQSGKTWQDCEYKDAAKAATGECTATVGKRSSTKFSVATQTCQITPAEGPVVTAQYDCLGCVHPISTQSPDLEPILRHGIQYFNNNTQHSSLFMLNEVKRAQRQVVAGLNFRITYSIVQTNCSKENFLFLTPDCKSLWNGDTGECTDNAYIDIQLRIASFSQNCDIYPGKDFVQPPTKICVGCPRDIPTNSPELEETLTHTITKLNAENNATFYFKIDNVKKARVQVVAGKKYFIDFVARETTCSKESNEELTESCETKKLGQSLDCNAEVYVVPWEKKIYPTVNCQPLGMISLMK
chain 2: SSRIGEIKEETTVSPPHTSMAPAQDEERDSGKEQGHTRRHDWGHEKQRKHNLGHGHKHERDQGHGHQRGHGLGHGHEQQHGLGHGHKFKLDDDLEHQGGHVLDHGHKHKHGHGHGKHKNKGKKNGKHNGWKTEHLASSSEDSTTPSAQTQEKTEGPTPIPSLAKPGVTVTFSDFQDSDLIATMMPPISPAPIQSDDDWIPDIQIDPNGLSFNPISDFPDTTSPKCPGRPWKSVSEINPTTQMKESYYFDLTDGLS
notes: heavy chain of human high molecular weight kininogen after excision of bradykinin; light chain of human high molecular weight kininogen after excision of bradykinin; also called 2-chain HMWK; 2-chain kininogen; source: bought: Enzyme Research Laboratories
For B5, the Kd [8] was 72000 pM.
